Measurements taken from article PMC12316308, “Interactions of substrates and phosphinyl containing inhibitors with bacterial and human zinc proteases” (PLOS One, 2025).
The star is where a group is joined. Dnp = O=[N+]([O-])c1ccc(*)c([N+](=O)[O-])c1; Mca = COc1ccc2c(CC(=O)*)cc(=O)oc2c1

Experiments:
[1] = biological target: T1, MMP-14 (Homo sapiens, UniProt P50281); assay: Enzymatic activity against ES001 and ES005; assay type: biochemical; settings: 10 µM substrate, DMSO omitted, n = 4
T1 construct: human MT1-MMP/MMP-14 (catalytic domain); purchased Calbiochem (San Diego, CA, USA)
Method: (§1) Determination of reaction velocities. The substrate ES001 was used for APMA activated MMP-9 (MMP-9(A)), Mag-Trypsin activated MMP-9 (MMP-9(MT)) and MMP-14, while the substrate ES005 was used for ALN, PLN and TLN. The reaction velocities/initial rates (v) were determined at 37°C, at an excitation wavelength of 320 nm and an emission wavelength of 405 nm with a slit width of 10 nm using either a Perkin Elmer LS 50 Luminescence spectrometer and the FL WinLab Software Package (Perkin Elmer) or a Clario Star micro plate reader (CLARIOstar® BMG LABTECH).
(§2) To compare the activity of these enzymes against ES001 and ES005 assays were conducted using the same assay condition for all enzymes. The differences from the testing of phosphinic compounds described in the Material and Methods section were that DMSO was omitted, and the concentration of both substrates was 10 µM. A Perkin Elmer LS50 Luminescence Spectrometer was used to measure the activity. Reactions were monitor for one minute, and initial reaction velocities were determined from the activity curves. For each enzyme, the reaction with the presumed optimal substrate was performed first at an arbitrary enzyme concentration, followed immediately by the reaction with the alternate substrate using the same enzyme concentration.

[2] = biological target: T2, MMP-9(A) (Homo sapiens, UniProt P14780); assay: Enzymatic activity against ES001 and ES005; assay type: biochemical; settings: 10 µM substrate, DMSO omitted, n = 4
T2 construct: made in house; host or cells: Sf9 and High Five insect cells
T2 sequence (P14780 107-707 limits assumed): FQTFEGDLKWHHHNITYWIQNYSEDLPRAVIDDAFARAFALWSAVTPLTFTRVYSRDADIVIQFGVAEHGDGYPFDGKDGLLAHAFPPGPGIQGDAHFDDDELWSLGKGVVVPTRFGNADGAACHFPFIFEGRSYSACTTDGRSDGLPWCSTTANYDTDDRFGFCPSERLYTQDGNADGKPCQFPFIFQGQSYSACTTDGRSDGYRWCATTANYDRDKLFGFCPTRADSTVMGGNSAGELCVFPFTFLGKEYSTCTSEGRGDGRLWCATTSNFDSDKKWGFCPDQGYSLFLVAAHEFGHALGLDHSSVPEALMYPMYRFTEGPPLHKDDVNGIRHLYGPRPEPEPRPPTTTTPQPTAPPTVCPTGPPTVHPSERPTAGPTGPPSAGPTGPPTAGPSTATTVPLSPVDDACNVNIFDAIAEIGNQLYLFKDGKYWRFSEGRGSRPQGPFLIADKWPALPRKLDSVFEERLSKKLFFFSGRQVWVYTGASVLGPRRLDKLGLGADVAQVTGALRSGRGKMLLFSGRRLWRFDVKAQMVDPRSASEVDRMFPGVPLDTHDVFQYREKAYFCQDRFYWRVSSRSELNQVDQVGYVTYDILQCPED
Method: as §1, §2

[3] = biological target: T3, MMP-9(MT) (Homo sapiens, UniProt P14780); assay: Enzymatic activity against ES001 and ES005; assay type: biochemical; settings: 10 µM substrate, DMSO omitted, n = 4
T3 construct: made in house; host or cells: Sf9 and High Five insect cells
T3 sequence (P14780 107-707 limits assumed): as above
Method: as §1, §2

[4] = biological target: T4, thermolysin (TLN) (Bacillus thermoproteolyticus, UniProt P00800); assay: MALDI-TOF MS analysis of ES005 cleavage; assay type: biochemical; settings: 50 µM ES005, 10 nM TLN, 5 minutes, 37°C
T4 construct: purchased Calbiochem (San Diego, CA, USA)
Method: MALDI-TOF MS spectra were recorded for samples containing different enzyme and substrate concentrations at various time points using an Autoflex Speed instrument (Bruker Daltonik GmbH, Leipzig, Germany) equipped with a 355-nm nitrogen laser for desorption and ionization. The ionization matrix, HCCA, was dissolved to 10 mg/mL in a standard solvent (50% MeCN, 47.5% MQ-water, and 2.5% TFA) by vigorous vortexing. Prior to the MALDI run, a main buffer (0.1 M Hepes, pH 7.5, 10 mM CaCl2) was used to dilute TLN to stock concentrations of 1000, 100 and 50 nM, ES005–500 µM, and galardin to 10 µM. All stocks solutions were kept on ice. For the 0 min incubation, 1 µL TLN and 1 µL galardin were preincubated at 37°C in 8 µL of the main buffer for 10 min before adding 1 µL of ES005. For all other time points, 1 µL of ES005 was added to tubes containing 8 µL buffer and 1 µL of TLN at different concentrations, followed by incubation at 37°C. At each timepoint (0, 1, 3, 5, 10, 20, 30, 60, 120 min), 1 µL of galardin was added to stop enzyme activity. After the final incubation, 1 µL aliquots from each timepoint were mixed with an equal volume of HCCA and spotted onto a MALDI plate. […] The resulting mass spectra were analysed using flexAnalysis software (v3.3, Bruker).

[5] = biological target: T5, ALN (Staphylococcus aureus, UniProt P81177); settings: 1% DMSO, less certain due to substrate quenching above 10 µM; cited from earlier work
T5 sequence (P81177 209-509): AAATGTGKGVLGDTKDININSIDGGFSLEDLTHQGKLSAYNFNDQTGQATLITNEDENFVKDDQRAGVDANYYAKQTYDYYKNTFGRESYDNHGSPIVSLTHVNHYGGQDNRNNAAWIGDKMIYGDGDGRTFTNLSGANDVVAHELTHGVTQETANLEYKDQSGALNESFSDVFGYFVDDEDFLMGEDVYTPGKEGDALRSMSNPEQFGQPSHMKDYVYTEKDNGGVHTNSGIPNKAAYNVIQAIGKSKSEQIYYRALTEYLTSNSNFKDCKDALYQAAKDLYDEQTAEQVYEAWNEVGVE

[6] = biological target: T6, PLN (Pseudomonas aeruginosa, UniProt P14756); settings: 1% DMSO, less certain due to substrate quenching above 10 µM; cited from earlier work
T6 sequence (P14756 198-498): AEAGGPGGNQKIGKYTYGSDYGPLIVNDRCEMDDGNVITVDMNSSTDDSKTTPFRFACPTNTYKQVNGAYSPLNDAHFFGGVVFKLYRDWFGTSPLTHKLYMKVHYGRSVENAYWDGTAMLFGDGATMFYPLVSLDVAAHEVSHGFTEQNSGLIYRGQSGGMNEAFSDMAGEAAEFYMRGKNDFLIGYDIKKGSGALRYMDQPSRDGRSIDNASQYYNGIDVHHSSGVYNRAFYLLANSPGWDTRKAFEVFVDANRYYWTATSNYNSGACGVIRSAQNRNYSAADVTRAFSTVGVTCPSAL

[7] = biological target: T7, TLN (Bacillus thermoproteolyticus, UniProt P00800); settings: 1% DMSO; cited from earlier work
T7 sequence (P00800 233-548): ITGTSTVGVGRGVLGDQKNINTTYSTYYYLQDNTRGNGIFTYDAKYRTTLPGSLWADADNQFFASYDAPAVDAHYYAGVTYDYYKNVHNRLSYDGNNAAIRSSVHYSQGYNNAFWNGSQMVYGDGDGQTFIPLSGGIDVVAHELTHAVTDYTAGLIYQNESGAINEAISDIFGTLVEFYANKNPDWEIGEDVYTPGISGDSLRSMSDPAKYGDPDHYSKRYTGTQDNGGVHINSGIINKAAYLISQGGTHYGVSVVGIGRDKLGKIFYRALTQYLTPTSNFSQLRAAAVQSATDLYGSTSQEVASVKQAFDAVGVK

[8] = biological target: T7, TLN; assay: Enzymatic activity against ES001 and ES005; assay type: biochemical; design: purchased Calbiochem (San Diego, CA, USA); settings: 10 µM substrate, DMSO omitted, n = 4
Method: as §1, §2

[9] = biological target: T5, ALN; assay type: biochemical; design: purchased BioCentrum Ltd (Kraków, Poland)
Method: as §1, §2

[10] = biological target: T6, PLN; assay type: biochemical; design: purchased Calbiochem (San Diego, CA, USA)
Method: as §1, §2

[11] = 10 µM substrate, DMSO omitted, n = 4

Mca-Arg-Pro-Pro-Gly-Phe-Ser-Ala-Phe-Lys(Dnp)-OH (Mca-RPPGFSAFK(Dnp)-OH; SMILES COc1ccc2c(CC(=O)N[C@@H](CCCNC(=N)N)C(=O)N3CCC[C@H]3C(=O)N3CCC[C@H]3C(=O)NCC(=O)N[C@@H](Cc3ccccc3)C(=O)N[C@@H](CO)C(=O)N[C@@H](C)C(=O)N[C@@H](Cc3ccccc3)C(=O)N[C@@H](CCCCNc3ccc([N+](=O)[O-])cc3[N+](=O)[O-])C(=O)O)cc(=O)oc2c1) [ES005, fluorescence quenched bradykinin like substrate used for TLN, PLN and ALN]
Enzymatic activity [1]: 8 ± 2 ΔF/min | Enzymatic activity [2]: 5.1 ± 0.2 ΔF/min | Enzymatic activity [3]: 18 ± 8 ΔF/min | cleavage sites (MALDI-TOF MS) [4]: cleaved at three sites: Gly-Phe (m/z 642), Ser-Ala (m/z 876), and Ala-Phe (m/z 947) | Km [5]: 76 ± 7 µM | Km [6]: 24 ± 8 µM | Km [7]: 6 ± 1 µM | Enzymatic activity [8]: 326 ± 36 ΔF/min | higher activity for ES005 than ES001 [9]: ~5 fold | Enzymatic activity [9, 11]: 354 ± 61 ΔF/min | higher activity for ES005 than ES001 [10]: approximately 15 fold | Enzymatic activity [10, 11]: 138 ± 4 ΔF/min
